The record followed here is US20070293451A1, “Regulation ao ApoB by Hsp110 proteins and related compositions and methods” (University of Pittsburgh, priority 2006, published 2007).

In one assay the test system is ApoB100. Briefly: ApoB100 biogenesis and secretion from McArdle cells (pulse-chase) on Hsp110 over-expression. The format is cell-based, rat. The protocol: (§1) FIGS. 9A and 9B show the effect of Hsp110 over-expression on ApoB100 secretion from McArdle cells, a standard rat hepatoma cell model of lipoprotein metabolism. ApoB100 (FIG. 9A) and albumin (FIG. 9B) biogenesis and secretion were assessed by published pulse-chase analytical methods.
(§2) An Hsp110 expression vector was obtained from Dr. John Subjeck (Roswell Park Cancer Center, N.Y.), and either that vector or a vector control was introduced into McArdle cells—a rat hepatoma cell line that also expresses full-length ApoB (that is, ApoB100). […] As a control, there was no effect on albumin secretion from these cells, regardless of whether Hsp110 was over-expressed (FIG. 9B). Furthermore, the over-expression of Hsp110 in the McArdle cells in the presence of a microsomal triglyceride transfer protein (MTP) inhibitor (BMS-200150; Jamil, H., D. A. Gordon, D. C. Eustice, C. M. Brooks, J. K. Dickson, Jr., Y. Chen, B. Ricci, C.-H. Chu, T. W. Harrity, C. P. Ciosek, Jr., S. A. Biller, R. E. Gregg, and J. R. Wetterau. 1996. An inhibitor of the microsomal triglyceride transfer protein inhibits apoB secretion from HepG2 cells. Proc Natl Acad Sci USA. 93, 11991-95) increased the percent of apoB recovered in the lysate and medium fractions from 14% to 28% (data not shown).

The test system of another assay is albumin. Briefly: Albumin secretion from McArdle cells (control). The format is cell-based, rat. The conditions noted are these: Hsp110 over-expressed or not. The protocol: as §1, §2
In another assay the test system is ApoB48. As to the kind of experiment: In vitro ApoB48 degradation assay in yeast cytosol with added purified protein. The format is biochemical. Particulars: purified protein added to wild type (SSE1) or delete (sse1) cytosols. How it is done: In vitro Analysis of ApoB Degradation: ^35S methionine labeled ApoB48 was synthesized in the presence of canine pancreatic microsomes (DPM; Promega, Madison, Wis.) using the SP6-TNT Kit (Promega) and plasmid pSPB48 (see above) as previously described (Gusarova, et al., 2001). The reaction mixture was then layered onto 1 mL SH buffer (0.25M sucrose, 5 mM Hepes, pH 7.4) and centrifuged at 100,000g for 30 min at 4° C. The microsomal pellets were resuspended in 12 μl of 2×PH buffer (40 mM HEPES, pH 7.4, 220 mM KCl, 10 mM MgCl2) and pooled. Cytosol, prepared as previously described (McCracken and Brodsky, 1996), was diluted to a specified concentration and pre-incubated with 0.25 mM MG132 (Peptides International) or an equivalent volume of DMSO for 15 min on ice. Following the pre-incubation, cytosol and ApoB48 were mixed 1:1 with these reagents at final concentrations of, 2 mM ATP, 10 mM creatine phosphate, and 100μg/mL creatine phosphokinase. Aliquots of the reaction were incubated at 37° C. for 5, 15 and 30 min or the indicated times and the reaction was quenched by adding an equal volume of 2×Urea Buffer (125 mM Tris, pH 6.8, 4% SDS, 6M Urea, 1 mM EDTA, 10 mM DTT, 250 mM β-mercaptoethanol, 20% Glycerol) and the mixture was heated at 96° C. for 4 min. […] Phosphorimager data was analyzed using Image Gauge software (Fuji Film Science Lab). […]

B1: Hsp110: human Hsp110 over-expressed from an expression vector in McArdle cells (protein, UniProt Q92598 2-858, looked up)
Heat shock protein 105 kDa: SVVGLDVGSQSCYIAVARAGGIETIANEFSDRCTPSVISFGSKNRTIGVAAKNQQITHANNTVSNFKRFHGRAFNDPFIQKEKENLSYDLVPLKNGGVGIKVMYMGEEHLFSVEQITAMLLTKLKETAENSLKKPVTDCVISVPSFFTDAERRSVLDAAQIVGLNCLRLMNDMTAVALNYGIYKQDLPSLDEKPRIVVFVDMGHSAFQVSACAFNKGKLKVLGTAFDPFLGGKNFDEKLVEHFCAEFKTKYKLDAKSKIRALLRLYQECEKLKKLMSSNSTDLPLNIECFMNDKDVSGKMNRSQFEELCAELLQKIEVPLYSLLEQTHLKVEDVSAVEIVGGATRIPAVKERIAKFFGKDISTTLNADEAVARGCALQCAILSPAFKVREFSVTDAVPFPISLIWNHDSEDTEGVHEVFSRNHAAPFSKVLTFLRRGPFELEAFYSDPQGVPYPEAKIGRFVVQNVSAQKDGEKSRVKVKVRVNTHGIFTISTASMVEKVPTEENEMSSEADMECLNQRPPENPDTDKNVQQDNSEAGTQPQVQTDAQQTSQSPPSPELTSEENKIPDADKANEKKVDQPPEAKKPKIKVVNVELPIEANLVWQLGKDLLNMYIETEGKMIMQDKLEKERNDAKNAVEEYVYEFRDKLCGPYEKFICEQDHQNFLRLLTETEDWLYEEGEDQAKQAYVDKLEELMKIGTPVKVRFQEAEERPKMFEELGQRLQHYAKIAADFRNKDEKYNHIDESEMKKVEKSVNEVMEWMNNVMNAQAKKSLDQDPVVRAQEIKTKIKELNNTCEPVVTQPKPKIESPKLERTPNGPNIDKKEEDLEDKNNFGAEPPHQNGECYPNEKNSVNMDLD
Turning to B1, in the assay on ApoB100 (Hsp110 over-expression in the presence of MTP inhibitor BMS-200150, data not shown), the “percent of apoB recovered in the lysate and medium fractions” value is 28%. Also, in the assay on ApoB100 (especially notable at 30 min time point), the “amount of ApoB100 in cell extracts” value is “concomitant increase”. For the same molecule, the “increase in the amount of ApoB 100 secreted” value in the assay with ApoB100 (medium, Hsp110 vector vs vector control) was approximately 2 fold. Besides, the “effect on albumin secretion” value in the assay on albumin is “no effect”.

B2: Sse1p: active, recombinant purified yeast Hsp110 homolog Sse1p (GenBank NP_015219) (protein)
chain: STPFGLDLGNNNSVLAVARNRGIDIVVNEVSNRSTPSVVGFGPKNRYLGETGKNKQTSNIKNTVANLKRIIGLDYHHPDFEQESKHFTSKLVELDDKKTGAEVRFAGEKHVFSATQLAAMFIDKVKDTVKQDTKANITDVCIAVPPWYTEEQRYNIADAARIAGLNPVRIVNDVTAAGVSYGIFKTDLPEGEEKPRIVAFVDIGHSSYTCSIMAFKKGQLKVLGTACDKHFGGRDFDLAITEHFADEFKTKYKIDIRENPKAYNRILTAAEKLKKVLSANTNAPFSVESVMNDVDVSSQLSREELEELVKPLLERVTEPVTKALAQAKLSAEEVDFVEIIGGTTRIPTLKQSISEAFGKPLSTTLNQDEAIAKGAAFICAIHSPTLRVRPFKFEDIHPYSVSYSWDKQVEDEDHMEVFPAGSSFPSTKLITLNRTGDFSMAASYTDITQLPPNTPEQIANWEITGVQLPEGQDSVPVKLKLRCDPSGLHTIEEAYTIEDIEVEEPIPLPEDAPEDAEQEFKKVTKTVKKDDLTIVAHTFGLDAKKLNELIEKENEMLAQDKLVAETEDRKNTLEEYIYTLRGKLEEEYAPFASDAEKTKLQGMLNKAEEWLYDEGFDSIKAKYIAKYEELASLGNIIRGRYLAKEEEKKQAIRSKQEASQMAAMAEKLAAQRKAEAEKKEEKKDTEGDVDMD
B2: the “effect on ApoB48 in vitro” value in the assay with ApoB48 is listed as “stabilizes ApoB48”.
